In patent US20260028424A1 (GRANULAR THERAPEUTICS, published 2026):
Positions count from the first letter of the chain named.

Columns and labels:
[1] = target: c-Kit (antigen of the binding assay of FIG. 9A) (Homo sapiens (Human), UniProt P10721 26-524); assay: plate binding assay on Human c-KIT, A450-A630 (ratio corrected)
[2] = target: T1, rhesus monkey CD203c His-tagged recombinant protein (rhesus monkey, UniProt F6TH66 31-874); assay: direct binding ELISA on rhesus CD203c, absorbance (blank corrected)
T1 construct: also called rhesus CD203c; not shown: His tag
T1 sequence: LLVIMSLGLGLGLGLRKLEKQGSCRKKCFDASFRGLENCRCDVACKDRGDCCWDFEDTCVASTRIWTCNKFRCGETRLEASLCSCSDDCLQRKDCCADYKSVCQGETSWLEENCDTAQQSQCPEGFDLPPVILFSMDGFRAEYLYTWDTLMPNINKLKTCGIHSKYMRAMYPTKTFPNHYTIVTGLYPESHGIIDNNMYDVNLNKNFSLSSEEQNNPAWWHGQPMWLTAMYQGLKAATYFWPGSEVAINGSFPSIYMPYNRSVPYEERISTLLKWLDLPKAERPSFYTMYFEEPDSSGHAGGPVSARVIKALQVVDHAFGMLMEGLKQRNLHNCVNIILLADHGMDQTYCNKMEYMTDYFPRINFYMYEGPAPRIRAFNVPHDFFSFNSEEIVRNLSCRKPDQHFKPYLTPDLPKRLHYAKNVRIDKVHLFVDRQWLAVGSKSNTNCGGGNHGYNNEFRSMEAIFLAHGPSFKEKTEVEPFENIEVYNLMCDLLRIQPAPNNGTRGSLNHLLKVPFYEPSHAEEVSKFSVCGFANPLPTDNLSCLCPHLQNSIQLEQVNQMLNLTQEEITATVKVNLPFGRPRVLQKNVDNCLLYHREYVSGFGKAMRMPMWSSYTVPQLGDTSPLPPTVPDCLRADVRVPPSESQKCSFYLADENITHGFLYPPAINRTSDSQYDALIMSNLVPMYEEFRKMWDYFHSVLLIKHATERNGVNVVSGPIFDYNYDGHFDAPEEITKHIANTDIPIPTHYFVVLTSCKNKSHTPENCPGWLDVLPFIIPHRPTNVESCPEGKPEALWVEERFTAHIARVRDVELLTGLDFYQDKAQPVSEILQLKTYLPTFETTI

[3] = target: T2, human CD203c His-tagged recombinant protein (human, UniProt O14638 49-875, limits assumed); assay: direct binding ELISA on human CD203c, absorbance (blank corrected)
T2 construct: also called ENPP3; not shown: His tag
T2 sequence (looked up): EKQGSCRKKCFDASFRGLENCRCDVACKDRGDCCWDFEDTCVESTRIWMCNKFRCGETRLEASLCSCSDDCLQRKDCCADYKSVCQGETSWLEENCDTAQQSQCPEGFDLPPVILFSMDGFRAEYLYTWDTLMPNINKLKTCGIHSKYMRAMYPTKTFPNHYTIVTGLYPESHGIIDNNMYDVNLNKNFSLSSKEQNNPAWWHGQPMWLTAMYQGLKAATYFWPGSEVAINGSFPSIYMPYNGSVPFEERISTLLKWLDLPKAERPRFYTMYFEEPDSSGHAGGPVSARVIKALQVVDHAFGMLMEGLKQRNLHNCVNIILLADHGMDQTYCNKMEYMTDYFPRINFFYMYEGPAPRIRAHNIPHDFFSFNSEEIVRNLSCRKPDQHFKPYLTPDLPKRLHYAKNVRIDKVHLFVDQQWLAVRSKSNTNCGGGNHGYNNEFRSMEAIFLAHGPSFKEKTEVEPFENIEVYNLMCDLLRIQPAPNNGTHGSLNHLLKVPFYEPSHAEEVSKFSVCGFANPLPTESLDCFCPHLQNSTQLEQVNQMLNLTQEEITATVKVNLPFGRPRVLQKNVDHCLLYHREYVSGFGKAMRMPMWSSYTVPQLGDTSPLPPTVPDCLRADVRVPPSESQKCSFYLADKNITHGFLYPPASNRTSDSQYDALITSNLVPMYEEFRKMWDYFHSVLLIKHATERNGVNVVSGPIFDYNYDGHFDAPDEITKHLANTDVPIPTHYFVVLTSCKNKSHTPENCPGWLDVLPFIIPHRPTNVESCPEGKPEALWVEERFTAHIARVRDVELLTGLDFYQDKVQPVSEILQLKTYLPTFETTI

[4] = target: T3, human CD203c expressed on the surface of KU812 cells (human, UniProt O14638 1-875); assay: flow cytometry on KU812 cells, MFI (530/30 - 488nm) of live cells
T3 construct: whole, on cells; also called cell-surface CD203c; cell surface CD203c on KU812 cells
T3 sequence (looked up): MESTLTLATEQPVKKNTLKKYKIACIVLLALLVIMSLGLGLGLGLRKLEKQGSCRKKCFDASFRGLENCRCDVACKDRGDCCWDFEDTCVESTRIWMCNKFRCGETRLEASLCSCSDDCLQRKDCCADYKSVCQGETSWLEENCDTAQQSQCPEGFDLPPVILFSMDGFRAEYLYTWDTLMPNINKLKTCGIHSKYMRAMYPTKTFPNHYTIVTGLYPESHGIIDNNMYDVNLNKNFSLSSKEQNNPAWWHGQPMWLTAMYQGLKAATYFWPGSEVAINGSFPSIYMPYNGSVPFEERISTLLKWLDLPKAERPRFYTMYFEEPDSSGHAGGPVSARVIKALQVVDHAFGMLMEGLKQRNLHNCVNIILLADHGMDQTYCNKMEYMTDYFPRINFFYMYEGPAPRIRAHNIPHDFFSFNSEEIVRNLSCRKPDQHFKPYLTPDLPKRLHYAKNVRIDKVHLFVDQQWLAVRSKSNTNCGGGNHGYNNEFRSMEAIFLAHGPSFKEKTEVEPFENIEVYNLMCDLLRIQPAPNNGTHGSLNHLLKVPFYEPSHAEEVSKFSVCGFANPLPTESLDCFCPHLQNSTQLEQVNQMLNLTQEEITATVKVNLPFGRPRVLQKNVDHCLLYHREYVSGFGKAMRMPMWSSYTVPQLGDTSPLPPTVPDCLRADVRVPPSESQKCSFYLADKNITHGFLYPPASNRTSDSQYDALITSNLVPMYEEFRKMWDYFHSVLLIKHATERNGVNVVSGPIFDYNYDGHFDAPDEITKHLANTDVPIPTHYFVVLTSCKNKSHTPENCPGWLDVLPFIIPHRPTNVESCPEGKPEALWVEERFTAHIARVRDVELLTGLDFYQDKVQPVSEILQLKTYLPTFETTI

Chain of c-Kit (antigen of the binding assay of FIG. 9A) (P10721 26-524 limits assumed): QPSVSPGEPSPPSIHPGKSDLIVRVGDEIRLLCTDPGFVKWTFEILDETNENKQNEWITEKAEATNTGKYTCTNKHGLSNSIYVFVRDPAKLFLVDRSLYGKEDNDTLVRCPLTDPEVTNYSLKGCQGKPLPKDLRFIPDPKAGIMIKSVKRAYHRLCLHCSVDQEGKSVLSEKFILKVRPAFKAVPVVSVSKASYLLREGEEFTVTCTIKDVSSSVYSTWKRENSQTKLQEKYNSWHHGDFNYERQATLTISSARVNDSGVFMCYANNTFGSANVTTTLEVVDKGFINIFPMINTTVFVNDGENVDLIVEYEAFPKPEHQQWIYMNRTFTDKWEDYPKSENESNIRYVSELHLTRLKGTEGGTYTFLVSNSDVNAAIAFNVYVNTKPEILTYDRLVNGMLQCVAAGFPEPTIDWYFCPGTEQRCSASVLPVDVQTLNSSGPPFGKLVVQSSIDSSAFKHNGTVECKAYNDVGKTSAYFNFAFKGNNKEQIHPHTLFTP

B1: F6/MH1 common light chain bispecific (anti-CD203c F6 x anti-c-Kit MH1) (bispecific antibody, V domains shown)
VH 1: QVQLVQSGAEVKKPGASVKVSCKASGYTFTDYYMNWVRQAPGQGLEWMGRIYPGSGNTYYAQKFQGRVTMTRDTSTSTVYMELSSLRSEDTAVYYCARGVYYYDYWGQGTLVTVSS
VH 2: EVQLVQSGAEVKKPGESLKISCKGSGYRFASNWIGWVRQMPGKGLEWMGEIYPGDSNTRYSPSFQGQVTISADKSISTAYLQWSSLKASDTAMYYCARKDYYYYAMDVWGQGTTVTVSS
VL: DIQMTQSPSSLSASVGDRVTITCRASQGIRTNLAWFQQKPGKAPKSLIYAASSLQSGVPSRFSGSGSGTDFTLTISSLQPEDFATYYCQQYNSYPRTFGGGTKVEIK
notes: Knob-in-hole IgG1null bispecific with human Ckappa; also called F6/MH1 bispecific molecule
EC50 (read off the curve) [1]: ~0.5 µg/mL

B2: 10 (antibody, V domains shown)
VH: B1 VH 2 with A30T, N32Y, E50I, N57D, Y104G
VL: B1 VL
notes: also called variant 10; 10 VH domain
binding result [2]: binds | binding result [3]: binds | binding result [4]: binds

B3: 11 (antibody, V domains shown)
VH: B1 VH 2 with A30T, N32Y, E50I, N57D, Y104G, M106F
VL: B1 VL
notes: also called variant 11; 11 VH domain
binding result [2]: binds | binding result [3]: binds | binding result [4]: binds

B4: 12 (antibody, V domains shown)
VH: B1 VH 2 with A30T, N32Y, E50I, N57D, Y104G, A105I
VL: B1 VL
notes: also called variant 12; 12 VH domain
binding result [2]: binds | EC50 (read off the curve) [3]: ~0.04 µg/mL

B5: 13 (antibody, V domains shown)
VH: B1 VH 2 with A30T, N32Y, E50I, N57D, Y104G, A105S
VL: B1 VL
notes: also called variant 13; 13 VH domain
binding result [2]: binds | binding result [3]: binds

B6: 14 (antibody, V domains shown)
VH: B1 VH 2 with A30T, N32Y, E50I, N57D, Y104G, M106L
VL: B1 VL
notes: also called variant 14; 14 VH domain
binding result [2]: binds | binding result [3]: binds

B7: 15 (antibody, V domains shown)
VH: B1 VH 2 with A30T, N32Y, E50I, N57D, Y104G, A105T
VL: B1 VL
notes: also called variant 15; 15 VH domain
binding result [2]: binds | binding result [3]: binds | binding result [4]: binds

B8: 17 (antibody, V domains shown)
VH: B1 VH 2 with A30T, N32Y, E50I, N57D, Y104N, D107P
VL: B1 VL
notes: also called variant 17; 17 VH domain
binding result [2]: binds | binding result [3]: binds | binding result [4]: binds

B9: 18 (antibody, V domains shown)
VH: B1 VH 2 with A30T, N32Y, E50I, N57D, Y104D, V108Y
VL: B1 VL
notes: also called variant 18; 18 VH domain
binding result [2]: binds | binding result [3]: binds

B10: 23 (antibody, V domains shown)
VH: B1 VH 2 with A30G, N32Y, N57K
VL: B1 VL
notes: also called variant 23; 23 VH domain
binding result [3]: binds

B11: 26 (antibody, V domains shown)
VH: B1 VH 2 with N32H, N57D, Y60I
VL: B1 VL
notes: also called variant 26; 26 VH domain
binding result [2]: binds | binding result [3]: binds

B12: A5 (antibody, V domains shown)
VH: B1 VH 2 with A30S, N32Y, W33R, N57K
VL: B1 VL
notes: also called variant A5; A5 VH domain
binding result [3]: binds | binding result [4]: binds

B13: C4 (antibody, V domains shown)
VH: B1 VH 2 with A30G, N32Y, E50D, D55N, N57D
VL: B1 VL
notes: also called variant C4; C4 VH domain
binding result [3]: binds | binding result [4]: binds

B14: bispecific pair with alternative common light chain VL1: MH1 VH / 2.7_1 VH / VL1 (bispecific antibody, V domains shown)
VH 1: B1 VH 1
VH 2: EVQLVESGPGLVKPSETLSLTCTVSGGSISSSSYYWGWIRQPPGKGLEWIGSMYYSGSTYHNPSLKSRVIISVDTSKNQFSLKLSSVTAADTAVYYCARHYITVAGIFDYWGQGTLVTVSS
VL: QSVLTQPPSASGTPGQRATISCRASQGIRTNLAWYQQVPGTAPKLLIYAASSLQSGVPSRFSGSKSGTSASLAISGLQSEDEADYYCQQYNSYPRTFGGGTKLTVL
notes: Format as tested (bispecific or separate IgGs) is not described beyond 'bispecific pairs'
EC50 (read off the curve) [1]: ~0.06 µg/mL

B15: bispecific pair with alternative common light chain VL2: MH1 VH / 2.7_1.2 VH / VL2 (bispecific antibody, V domains shown)
VH 1: B1 VH 1
VH 2: B14 VH 2
VL: B14 VL with A49S, A50N, S51N, S52Q, L53R, Q54P, S59D
EC50 (read off the curve) [1]: ~0.06 µg/mL

B16: bispecific pair with alternative common light chain VL4: MH1 VH / 2.14_1.2 VH / VL4 (bispecific antibody, V domains shown)
VH 1: B1 VH 1
VH 2: QVQLQESGPGLVKPSQTLSLTCTVSGGSISSGGYYWSWIRQHPGKGLEWIGIIYYSGSTYYNPSLKSRVTISVDTSKNQFSLKLNSVTAADTAVFYCARVAIVTTIPGGMDVWGQGTTVTVSS
VL: EIVLTQSPDFQSVTPKEKVTITCRASQGIRTNLAWYQQKPDQSPKLLIKYASQSFSGVPSRFSGSGSGTDFTLTINSLEAEDAATYYCQQYNSYPRTFGQGTKVEIK
EC50 (read off the curve) [1]: ~0.06 µg/mL
